One data set concerns the target T1, MepM (Escherichia coli, UniProt P0AFS9 41-440).
T1 construct: Peptidoglycan endopeptidase MepM of E. coli; source: purified as previously described in Moré et al (2019)
T1 sequence (looked up): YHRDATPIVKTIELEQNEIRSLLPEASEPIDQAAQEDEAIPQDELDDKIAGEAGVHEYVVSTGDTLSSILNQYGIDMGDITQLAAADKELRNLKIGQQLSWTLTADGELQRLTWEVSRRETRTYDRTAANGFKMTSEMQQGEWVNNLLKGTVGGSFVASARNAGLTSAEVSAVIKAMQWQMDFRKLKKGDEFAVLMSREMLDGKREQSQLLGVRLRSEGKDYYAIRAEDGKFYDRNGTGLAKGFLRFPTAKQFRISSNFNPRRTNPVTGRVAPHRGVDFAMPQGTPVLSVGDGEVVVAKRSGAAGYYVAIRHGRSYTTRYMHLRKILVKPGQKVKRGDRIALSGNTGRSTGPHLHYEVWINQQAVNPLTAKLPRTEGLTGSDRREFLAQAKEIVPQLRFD
The data set can be described thus: MST; titration: NT647-labelled protein against a two-fold serial dilution (16 steps) of unlabelled ligand; 25 mM HEPES/NaOH, 150 mM NaCl, 0.05% Triton X-100, pH 7.5; Monolith NT.115; apparent constants; for NlpI with itself: dimer to monomers. The conditions noted are these: both partners purified.

The target in another data set is T2, PBP4, native, purified (Escherichia coli, UniProt P24228 21-477, where used as the labelled protein in MST: NT647 RED-NHS dye on amines).
T2 construct: PBP4 (DD-endopeptidase) of E. coli, 'native PBP4' purified after Kishida et al (2006); Untagged ('native'); source: E. coli BL21 (λDE3), purified (HiTrap Q, hydroxyapatite, Superdex 200)
T2 sequence (P24228 21-477): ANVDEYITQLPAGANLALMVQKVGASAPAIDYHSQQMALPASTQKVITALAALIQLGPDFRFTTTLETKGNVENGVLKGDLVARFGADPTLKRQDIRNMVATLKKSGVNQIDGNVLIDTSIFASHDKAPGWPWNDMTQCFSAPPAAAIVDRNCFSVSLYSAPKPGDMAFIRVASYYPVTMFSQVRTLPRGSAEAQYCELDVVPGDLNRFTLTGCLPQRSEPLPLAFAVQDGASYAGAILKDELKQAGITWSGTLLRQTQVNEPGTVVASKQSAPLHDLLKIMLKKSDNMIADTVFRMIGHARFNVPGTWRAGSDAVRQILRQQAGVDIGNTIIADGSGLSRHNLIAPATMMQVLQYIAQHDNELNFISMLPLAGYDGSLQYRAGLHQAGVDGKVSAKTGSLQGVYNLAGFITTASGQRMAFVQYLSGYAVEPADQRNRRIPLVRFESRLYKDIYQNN
The description is as above. The conditions noted are these: both partners purified.

Data set [1] deals with the molecule itself. The description is as above.
Data set [2] concerns the molecule itself. The data set can be described thus: AUC; sedimentation velocity, 45,000 rpm, 20°C, 25 mM HEPES/NaOH, 150 mM NaCl, pH 7.5; NlpI 0.3-1.2 mg/ml; c(s) model.
A further data set has as its target T3, PBP7, purified (Escherichia coli, UniProt P0AFI5 26-310, where used as the labelled protein in MST: NT647 RED-NHS dye on amines).
T3 construct: PBP7 (DD-endopeptidase) of E. coli; source: E. coli BL21 (λDE3), purified (HisTrap HP, Superdex 200)
T3 sequence (looked up): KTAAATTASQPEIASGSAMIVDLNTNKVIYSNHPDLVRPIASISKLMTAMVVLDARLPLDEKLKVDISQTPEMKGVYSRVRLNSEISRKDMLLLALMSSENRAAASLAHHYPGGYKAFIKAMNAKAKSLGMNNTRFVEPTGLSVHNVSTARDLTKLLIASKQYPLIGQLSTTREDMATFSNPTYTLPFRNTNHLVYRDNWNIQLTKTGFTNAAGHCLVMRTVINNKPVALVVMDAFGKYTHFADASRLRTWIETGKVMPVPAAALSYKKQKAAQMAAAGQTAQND
The data set can be described thus: pull-down; Ni2+-NTA agarose beads; His-tagged protein with untagged or native ligand, overnight at 4°C; 10 mM HEPES/NaOH, 10 mM MgCl2, 150 mM NaCl, 0.05% Triton X-100, pH 7.5; washes with 30 mM imidazole; SDS-PAGE. The conditions noted are these: both partners purified.

These results are taken from publication PMC7049810, “Outer membrane lipoprotein NlpI scaffolds peptidoglycan hydrolases within multi‐enzyme complexes in Escherichia coli” (The EMBO Journal, 2020).

B1: NlpI, soluble version lacking its membrane anchor (natural protein, Escherichia coli)
chain: SNTSWRKSEVLAVPLQPTLQQEVILARMEQILASRALTDDERAQLLYERGVLYDSLGLRALARNDFSQALAIRPDMPEVFNYLGIYLTQAGNFDAAYEAFDSVLELDPTYNYAHLNRGIALYYGGRDKLAQDDLLAFYQDDPNDPFRSLWLYLAEQKLDEKQAKEVLKQHFEKSDKEQWGWNIVEFYLGNISEQTLMERLKADATDNTSLAEHLSETNFYLGKYYLSLGDLDSATALFKLAVANNVHNFVEHRYALLELSLLGQDQDDLAESDQQ
modifications: where used as fl-NlpI in MST: NT647 RED-NHS dye on amines
notes: Outer membrane lipoprotein NlpI of E. coli, soluble version lacking its membrane anchor; Homodimer by AUC; also called fl-NlpI (fluorescently labelled); His-NlpI; source: E. coli BL21 (λDE3), purified (HisTrap HP, Superdex 200)
Consider B1, for which the Kd was 152 nM in the data set with MepM; 177 nM in the data set with PBP4, native, purified; 126 nM in data set [1]. For the same molecule, the “stoichiometry N” value in data set [2] is 2. Besides, the binding result in the data set with PBP7, purified is listed as “binds”.
